In article PMC7484176:

Target: wild-type FtrA from Brucella abortus 2308 (Brucella abortus 2308)
Assay: SEC

For “wild-type FtrA from Brucella abortus 2308 (natural protein)”, the stoichiometry N was 2.
